Test results as given in the supplement of paper PMC9170038.

System: MS2 coat protein
Assay: apparent KD of MS2 coat protein; designed switch direction (-1 OFF switch, 1 ON switch): -1; higher = weaker reporter binding
How it was run: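 Transcription of designed RNA switches on Illumina chips was done by stalled E. coli RNA polymerase. SNAP-549-labelled MS2 coat protein was then titrated in doubling steps from 0.7 or 1.5 nM to 3 µM, with steps of 0.8–1.5 h at the lowest and 10–20 min at the highest concentration. The per-design median over clusters of curve-fitted normalised fluorescence is reported as apparent KD.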

[1] = Eterna round: R95, input ligand: FMN 200 uM
[2] = Eterna round: R95, input ligand: microRNA oligo, concentration not stated
[3] = Eterna round: R95, input ligand: none
[4] = input ligand: microRNA oligo, concentration not stated

Row | Sequence | apparent KD of MS2 coat protein [1] [nM] | apparent KD of MS2 coat protein [2] [nM] | apparent KD of MS2 coat protein [3] [nM] | apparent KD of MS2 coat protein (input ligand: FMN 200 uM) [nM] | apparent KD of MS2 coat protein [4] [nM] | apparent KD of MS2 coat protein (input ligand: none) [nM]
1 | GGUCUGCGAGGAUAUACAUGAGGAUCACCCAUGUGAGAGUUACUAGUGAGGUCGAUUGGUAGAAGGCGCGGACG [JL-ex3-2.04 salish99 mod] (puzzle: Exclusion 3) | 19 | 103 | 154 | – | – | –
2 | GAAUAGGCAGGAUAUACAUGAGGAUCACCCAUGUGCAAGCGAAAGGUACGUGAACAACGUAGAAGGGCCUAAAC [ChP 13.04.2015 #10] (puzzle: Exclusion 3) | 24.3 | 12.9 | 13.8 | – | – | –
3 | CCUGCGGACAAAGGAUAUUGCGGUGGCCGGCUCGGCGUACCGAGCCUACAUGAGGAUCACCCAUGUAAGAAGGUUGUCGUUGGA [Mat - Exclusion NG 2 - Mod of JL - D71] (Eterna round: R96, puzzle: Exclusion NG 2) | – | – | – | 228 | 27 | 40.1
4 | ACAUGUAAUGCAGGAUAUGGGACACAUGAGGAUCACCCAUGUUACCAUAUGUAAUGCUAAGAGUCUCAGAAGGGUAUGUACAUG [Ex NG2 #47] (Eterna round: R96, puzzle: Exclusion NG 2) | – | – | – | 8.6 | 12.2 | 15.6
5 | UCAAGCUUUAGGCGUGUGAACAUGAGGAUCACCCAUGUAUUUUUGGUUAGGAGUUCUGUAAGGGAUGCUCGUCUUAU [JR_SWV3TOV1_Sub092] (puzzle: Sensor v3, turn-off variant 1) | 57.5 | 54.8 | 75.8 | – | – | –
6 | UUACGGCGGAUCGUGGCUUUUUGCUCGUCUUGUGCUACAACAUGAGGAUCACCCAUGUAGAGGUGAUCCGUUGUAUU [Grok-var2-19 mod JAL] (Eterna round: R96, puzzle: Sensor v3, turn-off variant 2) | – | – | – | 342 | 13.4 | 740
7 | UGAGCUGAAGGAUAUGCGUAAUCACGGUGACGUGUAGAUCUACAUGAGGAUCACCCAUGUAGAAGGUCAGUUCU [Mat - Exclusion 2 - JL Mod - D33] (Eterna round: R97, puzzle: Exclusion 2) | – | – | – | 17 | – | 16.1
8 | UUUUAGUCAGGAUAUACAUUUUUUUAAUUAUUUAUAAUAUUACAUGAGGAUCACCCAUGUAGAAGGGACAUUUU [My Design] (puzzle: Exclusion 2) | – | 28.6 | – | – | – | –
9 | UCUCGACAUGAGGAUCACCCAUGUCAGGAUAUUGUAUUGGAGGUUUUUUACCUUAUGGCAAGAAGGGAUGUGUG [LRO-Excl1-24] (puzzle: Exclusion 1) | – | 18.3 | – | – | – | –
10 | GUUUCACAUGAGGAUCACCCAUGUGAGGAUAUGUUUUUAAAAGCAAUAGUUUUUGAAAACAGAAGGCGCGUGAU [JR_Exc1_Sub008] (Eterna round: R97, puzzle: Exclusion 1) | – | – | – | 71.6 | – | 60.5
11 | ACGUGCACUCAGGAUAUGCUACGCCUGCUCUCAGCAGAAGGGAGUACAUGAGGAUCACCCAUGUGACAUCUGAU [Eternabot (Original) Solution 13] (Eterna round: R97, puzzle: Exclusion 6) | – | – | – | 44.3 | – | 26
12 | AGUGUGAGGCAGGAUAUGCUAUAUGUAAGUAAUGCAGAAGGGUCUACAUGAGGAUCACCCAUGUGUGCGGUUGA [Ex6 #9] (Eterna round: R97, puzzle: Exclusion 6) | – | – | – | 797 | – | 116
13 | UGUACGAUGCGUGCUGACAUGCGUCGUGCAGCAGGUGAUACAUGAGGAUCACCCAUGUCCUCAUUUGCUCGUCUUAU [Mat - Sensor v3 - Turn-off var 2 - D23] (puzzle: Sensor v3, turn-off variant 2) | 53.5 | 218 | 55.6 | – | – | –
14 | CGCUAGUCAGGAUAUACGAACAUGUCAAAAGACGUGAAGGGACAUGAGGAUCACCCAUGUAGAAGGGACUAGCA [salish99_ex2_r3_014] (Eterna round: R96, puzzle: Exclusion 2) | – | – | – | 165 | 22.2 | 31.5
15 | AGGGAUAAAGGAUAUACAUGAGGAUCACCCAUGUUGAGGAAAGUGAGAGGUGGCGAUAGUAGAAGGUUAGGUAG [JR_Exclu3_Sub082] (puzzle: Exclusion 3) | 86.8 | 78.8 | 137 | – | – | –
16 | UUAUAAAGUGUGAGGAUAUGCUGGUCGAUAGAUCAGCAGAAGGCACAUGAGGAUCACCCAUGUAAUAUAUUUUU [Mat - Exclusion 4 - JL Mod - D44] (puzzle: Brourd's mod of Exclusion 4) | – | 45.1 | – | – | – | –
17 | AACAAGCUUUUAAGAUCCUACAUGAGGAUCACCCAUGUGCUCGUCUUGUAACGUACUGUGACGAAAGUCACGGUACG [JL TOV1 3.29] (Eterna round: R97, puzzle: Sensor, turn-off variant 1) | – | – | – | 233 | – | 182

Row | Sequence | apparent KD of MS2 coat protein [1] [nM] | apparent KD of MS2 coat protein [2] [nM] | apparent KD of MS2 coat protein [3] [nM] | apparent KD of MS2 coat protein (input ligand: FMN 200 uM) [nM] | apparent KD of MS2 coat protein [4] [nM] | apparent KD of MS2 coat protein (input ligand: none) [nM]
18 | GGAUCGAGUGUGAGGAUAUGCUGGUCCUAAGAUCAGCAGAAGGCACAUGAGGAUCACCCAUGUGAAAACGGUCC [Mat - Exclusion 4 - JL Mod - D71] (puzzle: Brourd's mod of Exclusion 4) | – | 23.5 | – | – | – | –
19 | AAAUUCUGAGGAUAUCGAUGUUUGUACAUGAGGAUCACCCAUGUCCUUUUUAUUUAAUCCCGAGAAGGCAGUGUAU [JR_E5_Sub098] (puzzle: Exclusion 5) | – | 32.6 | – | – | – | –
20 | GUUCGUGGGCAAGGAUAUCCUACGCUGUUCUGGUUCGUGUCUGUCACAUGAGGAUCACCCAUGUGGGAGAAGGUGCAUUUGGGU [Design 57] (Eterna round: R96, puzzle: Exclusion NG 2) | – | – | – | 18.9 | 15.1 | 20.1
21 | ACAAGCUCUGUGGGUGGUGACAUGAGGAUCACCCAUGUUUUGCUCGUCUUGUCGGCCGGCCGGCGCCCGGCCGGCCG [-39.6, -68.5, A 12%] (Eterna round: R97, puzzle: Sensor, turn-off variant 1) | – | – | – | 498 | – | 727
22 | CGCCUGUAAGGAUAUUAGUAGUAGUCAGAAUAGACUAUUACUGAGAAGGUACAUGAGGAUCACCCAUGUUGGCG [Eli x4 4.10] (Eterna round: R97, puzzle: Exclusion 4) | – | – | – | 19.7 | – | 18.5
23 | CUUUUGUGAGGAUAUUAGUAGUAAAUAAAUAAAAUUAUUACUGAGAAGGCACAUGAGGAUCACCCAUGUUCCUC [salish99_ex4_r3_062] (Eterna round: R96, puzzle: Exclusion 4) | – | – | – | 533 | 32.9 | 36.6
24 | ACAAGCAGAGAGUAAAUGGACAUGAGGAUCACCCAUGUGAGUCCAAGGAGAUAAGAUAUAUUAUUGGCUCGUCUUAU [AK-miRNA-r3-20] (Eterna round: R97, puzzle: Sensor, turn-off variant 1) | – | – | – | 75.2 | – | 104
25 | CGCUGGACAGGAUAUGUUCUUGGGCACUUGAGGAUCACCCAAGUCAUCGGGACAUCAGGCACAGAAGGGUUUUUGG [salish99_ex5_r4_027] (Eterna round: R97, puzzle: Exclusion 5) | – | – | – | 18 | – | 20.5
26 | GUAGAGUAAGGAUAUGCAGAAUAGGAUAGAAUGGUUAGAAUGUAGAAGGUACAUGAGGAUCACCCAUGUAAUGU [Excluse me!!!! 10 - Jieux - Exclusion 4] (puzzle: Exclusion 4) | 20.8 | 22.7 | 22.7 | – | – | –
27 | AGGUGCUUCUGGAGACAUGAGGAUCACCCAUGUUGAGUUAGCGAGGAUAUCGGUAACGCAUGUGAUGAGAAGGCGCAAACCAAU [Ex NG3 #47] (Eterna round: R96, puzzle: Exclusion NG 3) | – | – | – | 79.7 | 30.7 | 47
28 | UUUUACAUAGGAUAUAGUUGCUUUUACAUGAGGAUCACCCAUGUCUCUCCUCUCUCUCUUCUAGAAGGAUGUUUCU [JR_E5_Sub011] (puzzle: Exclusion 5) | – | 53.3 | – | – | – | –
29 | UGAGUGCGUGUUAGGAUAUGGUUUGGUAUUUCGGGCUAGAAGGGACAUGAGGAUCACCCAUGUAAUUGGCGGGU [-17.2, -16.9 kcal, 22% A] (Eterna round: R97, puzzle: Brourd's mod of Exclusion 4) | – | – | – | 259 | – | 227
30 | UGUUGUCGCGCAGGAUAUGGCCAACAGGCCCUAGGAUAUCGGAAACGAGAAGGAGCGCCAACAGGCGAGAAGGGCGGGACAACU [pwkr exNG2 2xF7 2xFMN.18] (Eterna round: R96, puzzle: Exclusion NG 2) | – | – | – | 85.9 | 912 | 995
31 | AUCCAACAUGAGGAUCACCCAUGUCAGGAUAUCUAGCGGUGCGGCAACCCGGGCGCGCGGAGAAGGGACAACGG [EX1 B.23] (Eterna round: R97, puzzle: Exclusion 1) | – | – | – | 56.2 | – | 27.2
32 | UUUUUACGAGGAUAUCGAUUGUGGUACAUGAGGAUCACCCAUGUAUGUGAUAUUGUAUUUCGAGAAGGCGUUCAGU [JR_E5_Sub060] (puzzle: Exclusion 5) | – | 21.5 | – | – | – | –
33 | CAUACUAAAGUCAGGAUAUGCGGUCGAAUACGGGCGUAGAAGGGACAUGAGGAUCACCCAUGUAGAUAGUAAAG [EX-4 Malc #19] (puzzle: Brourd's mod of Exclusion 4) | 15.3 | 13.6 | 15.7 | – | – | –
34 | GUUUUAUAUGAAGGAUAUACUUAACAUGAGGAUCACCCAUGUGGUGUUGUGAGUGAGUGAGUUUAGUAGAAGGUCAAGUAUUUU [JMF's solution 56] (Eterna round: R96, puzzle: Exclusion NG 2) | – | – | – | 335 | 231 | 319
